The target of data set [1] is T1, SARS-CoV N protein CTD (NP248-365) (SARS-CoV, UniProt P59595 248-365). The data set can be described thus: EMSA. (In general: In EMSA bound probe runs differently from free probe, usually more slowly.)
Data set [2] addresses SARS-CoV N protein NTD (NP45-181) (SARS-CoV, UniProt P59595 45-181). The experiment in a line: EMSA.
Data set [3] concerns the target SARS-CoV N protein NP45-365 (SARS-CoV, UniProt P59595 45-365). The experiment in a line: EMSA.
Data set [4] addresses SARS-CoV N protein NP281-365 (SARS-CoV, UniProt P59595 281-365). The data set can be described thus: EMSA.
Data set [5] addresses T1, SARS-CoV N protein CTD (NP248-365). The experiment in a line: EMSA. The source holds these as a separate data set.
Data set [6] concerns the molecule itself. The data set can be described thus: cross-linking.

Read-outs that look alike come from different tables or passages of the source.

Turning to CGAGGCCACGCGGAGUACGAUCGAGGGUACAG (ssRNA) [s2m 32-mer ssRNA], the binding result is “binds” in data set [1], “binds” in data set [2], “binds” in data set [3] and “no binding” in data set [4].
Regarding CGAGGCCACGCGGAGTACGATCGAGGGTACAG (ssDNA) [32-mer ssDNA mimic of s2m], the binding result in data set [1] is recorded as “binds”; in data set [2], “binds”; in data set [3], “binds”; in data set [4], “no binding”.

B1: 32-mer s2m dsDNA (dsDNA)
DNA 1: CGAGGCCACGCGGAGTACGATCGAGGGTACAG
DNA 2: CTGTACCCTCGATCGTACTCCGCGTGGCCTCG
In the case of B1, the values for the binding result in data set [5] and in data set [4] were “binds” and “no binding”, respectively.

B2: SARS-CoV NP248-365 (C-terminal domain of the SARS-CoV nucleocapsid protein, residues 248-365) (domain or fragment)
chain: TKKSAAEASKKPRQKRTATKQYNVTQAFGRRGPEQTQGNFGDQDLIRQGTDYKHWPQIAQFAPSASAFFGMSRIGMEVTPSGTWLTYHGAIKLDDKDPQFKDNVILLNKHIDAYKTFP
With B2, the binding result in data set [6] is given as “binds”.
